Assay [1] addresses T1, recombinant C-CSP construct (PfCSP_3D7 amino acids 295–374) (Plasmodium falciparum 3D7, UniProt Q7K740).
T1 construct: also called C-terminal domain of PfCSP
Put plainly: ELISA. Conditions: both partners purified. On the technique in general: ELISA stands for enzyme-linked immunosorbent assay.

Assay [2] deals with T2, N-CSP (N-terminus of PfCSP) (Plasmodium falciparum 3D7, UniProt Q7K740).
T2 construct: source: created by Genscript, as previously described [21,40]
Put plainly: ELISA. Conditions: both partners purified.

In assay [3] the target is T3, 36mer repeat peptide (NANP)9 (Plasmodium falciparum repeat, synthetic …).
T3 construct: printed as (NANP)9, 36mer; nine NANP tetrapeptides of the central repeat region of Plasmodium falciparum circumsporozoite protein; source: created by Genscript, as previously described [21,40]
T3 chain: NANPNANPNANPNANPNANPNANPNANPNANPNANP
Description: ELISA; antigen coated at 0.5 μg/mL in bicarbonate buffer overnight at 4°C; mAbs 5x10^-7–5.0 μg/mL, 2 hrs at 37°C; HRP-conjugated goat anti-human IgG; AUC of OD450. Conditions: both partners purified.

Assay [4] deals with T4, full-length recombinant PfCSP (FL-rCSP) (Plasmodium falciparum 3D7 (clone of …, UniProt Q7K740)).
T4 construct: also called PfCSP_3D7
Description: ELISA. Conditions: both partners purified.

Assay [5] concerns the target full-length PfCSP on transgenic P. berghei sporozoites (Pb-PfCSP-GFP/Luc-SPZ) (Plasmodium falciparum, 3D7 (transgene …, UniProt Q7K740)). Description: flow cytometry on cells; 20 μg/mL mAb on midgut (MG) Pb-PfCSP-SPZ; goat anti-human IgG-Alexa Fluor 647. Conditions: one partner purified. (A flow cytometer gives signals particle by particle.)

Data on 5 molecules can be found in paper PMC8675929 (PLoS Pathogens, 2021).

B1: 1710 (antibody, V domains shown)
VH: EVQLQESGGGLVKPGGSLRLSCAASGFTFSSYSMNWVRQAPGKGLEWVSSITSSSSYIYYADSVKGRFTISRDNAKNSLYLQMNSLRAEDTAVYYCARDPGIAAADNHWFDPWGQGTLVTVSS
VL: not shown
Consider B1, for which the binding result is listed as “binds” in assay [1] and “no binding (tested: 5.0 μg/mL)” in assay [2].

B2: L15 (antibody, V domains shown)
VH: EVQLVESGGVVVQPGGSLRLSCAASGFTFDDYTMHWVRQAPGKGLEWVSLISWDGGTTYYADSVKGRFTISRDNSKNSLYLRMNSLRTEDTALYYCAKGLVAQWLRGDYYYGLHVWGQGTTVTVSS
VL: QSALTQPASVSGSPGQSITISCTGTSSDVGAYNSVSWYQQHPGKAPKLMIYDVTNRPSGVSNRFSGSKSGNTASLTISGLQAEDEADYYCSSYTITNTLVFGGGTKLTVL
For B2, the binding result in assay [3] was “no binding (tested: 5.0 μg/mL)”; in assay [1], “binds”; in assay [2], “no binding (tested: 5.0 μg/mL)”; in assay [4] it was “binds”; in assay [5], “binds”.

B3: L4 (antibody, V domains shown)
VH: QLQLQESGPRLVKPSETLSLTCTVSGGSISRTSYYWDWIRQPPGKGLEWIGSIYYRGSTYHNPSLKSRVTISVDTSKNQFSLRLTSVTAADTAVYYCARPKNLGVVAATNWFDPWGQGTLVTVSS
VL: QSVLTQPPSVSGAPGQRVTISCTGSSSNIGATYDVHWYQQLPGTAPKLLIYDNNNRPSGVPDRFSGSKSGTSASLAITGLQADDEADYYCQSYDSSLSGVVFGGGTKLTVL
For the molecule B3, the binding result in assay [3] was “no binding (tested: 5.0 μg/mL)”; in assay [1] it was “binds”; in assay [2], “no binding (tested: 5.0 μg/mL)”; in assay [4], “binds”.

B4: L20 (antibody, V domains shown)
VH: EVQLVESGGGLVQPGRSLRLSCAASGFTFDDYAMHWVRQAPGKGLEWVSGINWNSGSIGYADSVKGRFTISRDNARNSLYLQMNGLRAEDTAFYYCAKDLRAYYYGSGSPWGFHHWGQGTLVTVSS
VL: QSALTQPPSASGSPGQSVTISCTGTSSDVGGYNYVSWYEQHPGKAPKLLIYEVSKRPSGVPDRFSGSKSGNTASLTVSGLQAEDEADYYCSSYAGSNNVVFGGGTKLTVL
As for B4, the binding result was “no binding (tested: 5.0 μg/mL)” in assay [3], “binds” in assay [1], “no binding (tested: 5.0 μg/mL)” in assay [2] and “binds” in assay [4].

B5: L7 (antibody, V domains shown)
VH: QLQLQESGPGLVKPSETLSLTCTVSGGSISSSNYYWDWIRQPPGKGLEWIGSINYSGSTYYNPSLKSRVTISVDTSKIQFSLKMSSVTAADTAVYYCARRRVDFWSGYNWFDPWGQGTLVTVSS
VL: QPVLTQPPSASASMGASVTLTCTLSSGYSKYKVDWYQQRPGKGPRFVMRAGTGGIVGSKGDGIPDRFSVLGSGLNRYLTIKNIQEEDESDYHCGADHGSGSNFVYVFGTGTKVTIL
Consider B5, for which the binding result was “no binding (tested: 5.0 μg/mL)” in assay [3], “binds” in assay [1], “no binding (tested: 5.0 μg/mL)” in assay [2] and “binds” in assay [4].
